From the supplement of paper PMC9170038

Test system: MS2 coat protein
Assay: apparent KD of MS2 coat protein; designed switch direction (-1 OFF switch, 1 ON switch): -1; higher = weaker reporter binding
Summary of the method: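 Designed RNA switches with common flanks were made on Illumina chips by stalled E. coli RNA polymerase. Titration with SNAP-549-labelled MS2 coat protein doubled from 0.7 or 1.5 nM up to 3 µM. Apparent KD is each design's median over clusters after curve-fitting normalised fluorescence.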

[1] = Eterna round: R95, input ligand: FMN 200 uM
[2] = Eterna round: R95, input ligand: microRNA oligo, concentration not stated
[3] = Eterna round: R95, input ligand: none
[4] = input ligand: microRNA oligo, concentration not stated

Sequence | apparent KD of MS2 coat protein (input ligand: FMN 200 uM) | apparent KD of MS2 coat protein (input ligand: none) | apparent KD of MS2 coat protein [1] | apparent KD of MS2 coat protein [2] | apparent KD of MS2 coat protein [3] | apparent KD of MS2 coat protein [4]
AGCCAAGCAGGAUAUAUCCGGGAUAACAUGAGGAUCACCCAUGUGACCGCUUGAUAUCCUAUAGAAGGGCUUGGGA [Mod of ViennaUCT 24 - Jieux - Exclusion 5] (Eterna round: R97, puzzle: Exclusion 5) | 54.8 nM | 24.9 nM | – | – | – | –
AGCCACAGAGGAUAUACAUACAUCCAGUGGUUAAGAAUACAACAUGAGGAUCACCCAUGUAGAAGGCUGUGGCA [Omei Ex2 BD B10] (Eterna round: R97, puzzle: Exclusion 2) | 394 nM | 152 nM | – | – | – | –
AGCCACAGAGGAUAUACAUACAUCCAGUGGUUAAGAAUACUACAUGAGGAUCACCCAUGUAGAAGGCUGUGGCA [Omei Ex2 BD B11] (Eterna round: R97, puzzle: Exclusion 2) | 108 nM | 22.4 nM | – | – | – | –
AGCCCUGGCGUCAGGAUAUCGAAACCGCAAAAGGACGAGAAGGGACAUGAGGAUCACCCAUGUAGUGAGUUAAA [Isedrecedi] (puzzle: Brourd's mod of Exclusion 4) | – | – | 35.6 nM | 34.5 nM | 39 nM | –
AGCGAGCUAGGAUAUACAUGAGGAUCACCCAUGUCUUUUUAGUACUACGGUGGAAGAUGUAGAAGGAGUGAGAA [Soisza] (puzzle: Exclusion 3) | – | – | – | 92.3 nM | – | –
AGCGGACAAGGAUAUACAUGAGGAUCACCCAUGUACUUAGCAAGUUUGUUUCGUCGAUGUAGAAGGUGUAAUGU [EX3 C.14] (Eterna round: R97, puzzle: Exclusion 3) | 19.4 nM | 20.2 nM | – | – | – | –
AGCUAGUCAGGAUAUACAAACAUGUCAAAAGACGUGAAGAGACAUGAGGAUCACCCAUGUAGAAGGGACUAGCA [Mat - Exclusion 2 - JL mod - D13] (Eterna round: R96, puzzle: Exclusion 2) | 88.1 nM | 22.9 nM | – | – | – | 15.7 nM
AGCUAGUGAGGAUAUACGAACAUGUCAAAAGACUGUAAGGGACAUGAGGAUCACCCAUGUAGAAGGCACUAGCA [Diamond 55] (Eterna round: R96, puzzle: Exclusion 2) | – | – | – | – | – | 32.4 nM
AGCUAUGCCGAGGAUAUCGGCUGGAUAAGACACUGAGAAGGCGGGACAUGAGGAUCACCCAUGUGAACCUAUAU [Eternabot (L1) Solution 30] (Eterna round: R97, puzzle: Exclusion 6) | 27.3 nM | 30.2 nM | – | – | – | –
AGCUGUGGCCAAGGAUAUCUAACCUUAAAUACCGACGUAUAGUCGGACAUGAGGAUCACCCAUGUGGAGAAGGUGGUCUCAGCA [Eli eng2 - 043] (Eterna round: R96, puzzle: Exclusion NG 2) | – | – | – | – | – | 18.3 nM
AGCUGUGGCCGAGGAUAUCUACAUGAGGAUCACCCAUGUGGGUGAAAUAUCGGGAAAACCUCGAUGGAGAAGGCGGUCUCAGCA [Eli eng2 - 046] (Eterna round: R96, puzzle: Exclusion NG 2) | 849 nM | 263 nM | – | – | – | 234 nM
AGCUGUGGCCGAGGAUAUCUGAAACUCAAAACCGAAAUAUAAUCGGACAUGAGGAUCACCCAUGUAGAGAAGGCGGUCUCAGCA [Eli eng2 - 079] (Eterna round: R96, puzzle: Exclusion NG 2) | – | – | – | – | – | 126 nM
AGCUUUUUGCUCGUCUUAUACAUGAGGAUCACCCAUGUAUUGGACCACAUCGAUAGAUGUGGACCAAGAAGCAUGGU [Omdei Mir OFFv1 C3] (Eterna round: R97, puzzle: Sensor, turn-off variant 1) | 46.8 nM | 45.2 nM | – | – | – | –
AGGAAUCUAGGAUAUAUAUGAAACGAUCCAGAUUCAAGGAAACAUGAGGAUCACCCAUGUAGAAGGAGAGAAAA [EX2 A.17] (Eterna round: R97, puzzle: Exclusion 2) | 23.4 nM | 21.5 nM | – | – | – | –
AGGACAUGAGGAUCACCCAUGUAGUGAGGUGUAUCCGAAGACGAGGAUAUACAGAGGAAAUAUCUGUAGAAGGUGUUAUAAAUU [Atleusan] (Eterna round: R96, puzzle: Exclusion NG 3) | 726 nM | 766 nM | – | – | – | 229 nM
AGGAGUAGUAUCCGAUCCUACAUGAGGAUCACCCAUGUAGCUAGACGUGCACGCGAUGCUCGUCAGACUACCAGAUG [salish99_TOv1_r3_034] (puzzle: Sensor v3, turn-off variant 1) | – | – | 99.4 nM | 116 nM | 143 nM | –

Sequence | apparent KD of MS2 coat protein (input ligand: FMN 200 uM) | apparent KD of MS2 coat protein (input ligand: none) | apparent KD of MS2 coat protein [1] | apparent KD of MS2 coat protein [2] | apparent KD of MS2 coat protein [3] | apparent KD of MS2 coat protein [4]
AGGAUCCUAGGAUAUGCUGGGUAUCGCUGUCGGAGGGACAGACAUGAGGAUCACCCAUGUAGAAGGAGGCGCUC [Eternabot (L1) Solution 5] (Eterna round: R97, puzzle: Exclusion 2) | 3680 nM | 667 nM | – | – | – | –
AGGAUGUUAGGAUAUCGAAGGUUGUGGCAGGCGGGAAUUUGCGAGAAGGAACAUGAGGAUCACCCAUGUGAAAU [JR_Exclu4_Sub044] (puzzle: Exclusion 4) | – | – | – | 19.7 nM | – | –
AGGGAGUAAGGAUAUCGGAAAGGACACGAAAGUGACAAAGACGAGAAGGUACAUGAGGAUCACCCAUGUAAAAA [milkweed 24] (Eterna round: R96, puzzle: Exclusion 4) | – | – | – | – | – | 18.2 nM
AGGGCUGCUCAGGAUAUCCGUAAAAGCCGAAAAGGAGAAGGGAGCACAUGAGGAUCACCCAUGUGAUCCUAAAA [Orbemaored] (puzzle: Exclusion 6) | – | – | 28 nM | 14.6 nM | 15.5 nM | –
AGGUAACAUGAGGAUCACCCAUGUCAGGAUAUCAGUAAGAGGAGGAUAGAAUAGAGUAUGAGAAGGGACUAUAU [Excluse me! 23 - Jieux - Exclusion 1] (puzzle: Exclusion 1) | – | – | 48 nM | 40.7 nM | 47.8 nM | –
AGGUAACAUGAGGAUCACCCAUGUCAGGAUAUCAUGAAGAGUAGAUUAGAGGAGAGGUUGAGAAGGGACUAUAU [Excluse me! 15 - Jieux - Exclusion 1] (puzzle: Exclusion 1) | – | – | – | 38.5 nM | – | –
AGGUAGCAAGGAUAUACAACUUUGGGCACUGCCUCUUGGAGACAUGAGGAUCACCCAUGUAGAAGGUGCAGGCC [Tibiarusor] (puzzle: Exclusion 2) | – | – | – | 11.7 nM | – | –
AGGUAGUCAGGAUAUUAAGAGUAGCGGGAUAACGCUACGAGUGAGAAGGGACAUGAGGAUCACCCAUGUUUAUU [JR_Ex4_Sub070] (Eterna round: R97, puzzle: Exclusion 4) | 23 nM | 24.8 nM | – | – | – | –
AGGUCAUUAGGAUAUGUCGAAUAUGACAUGAGGAUCACCCAUGUGGUAGGCAUGUCGUAGACAGAAGGAGUGUAAA [Laqureis] (Eterna round: R97, puzzle: Exclusion 5) | 219 nM | 75.9 nM | – | – | – | –
AGGUCCUUCUGGAGACAUGAGGAUCACCCAUGUCGAGUCAGCGAGGAUAUCGGUAAGACAUGUGAUGAGAAGGCGCAGACCGAU [Ex NG3 #43] (Eterna round: R96, puzzle: Exclusion NG 3) | 17.2 nM | 12.7 nM | – | – | – | 11.9 nM
AGGUCCUUCUGGAGACAUGAGGAUCACCCAUGUCGAGUCAGCGAGGAUAUCGGUUAAUAAUGUGAUGAGAAGGCGCGGACCGAU [Ex NG3 #54] (Eterna round: R96, puzzle: Exclusion NG 3) | 41.5 nM | 19.3 nM | – | – | – | 11.6 nM
AGGUGACAUGAGGAUCACCCAUGUAAGGAUAUACGGUUAGUGGAGAGAGGGAAAAGAGGUAGAAGGUACGGAGC [JR_Exclu1_Sub057] (puzzle: Exclusion 1) | – | – | – | 156 nM | – | –
AGGUGACAUGAGGAUCACCCAUGUAAGGAUAUACGGUUAGUGGAGAGAGGGAAGAGAGGUAGAAGGUACGGAGC [JR_Exclu1_Sub058] (puzzle: Exclusion 1) | – | – | 240 nM | 227 nM | 316 nM | –
AGGUGAUAUCUGUCGAUGGACAUGAGGAUCACCCAUGUGAGCUUUUUGCUCGUCUUAUAAACCGGUGACAGACCUUC [Sensor v3, turn-off variant 1 (MOD of Zalaso)] (puzzle: Sensor v3, turn-off variant 1) | – | – | 49.8 nM | 20.6 nM | 69.4 nM | –
AGGUGCUUCAGGAGACAUGAGGAUCACCCAUGUUGAGUUAGCGAGGAUAUCGGUAACCCUUGUGAUGAGAAGGCGCAAACCAGU [Ex NG3 #45] (Eterna round: R96, puzzle: Exclusion NG 3) | 39.5 nM | 29.1 nM | – | – | – | 14.4 nM
AGGUGCUUCUGGAGACAUGAGGAUCACCCAUGUUGAGUUAGCGAGGAUAUCGGUAAGGCAUGUGAUGAGAAGGCGCAAACCGAU [Ex NG3 #49] (Eterna round: R96, puzzle: Exclusion NG 3) | 50.6 nM | 49.5 nM | – | – | – | 35.5 nM
